Laboratory results published in paper doi:10.1101/2024.09.06.611644 (bioRxiv, 2024).

Target: wild-type AC fused to GFP (AC-GFP) (GFP moiety: Aequorea victoria …, UniProt P42212 = GFP)
Experiment: two-hybrid

B1: CaM-V9A fusion expressed from pK1Cam-V9A or pK2Cam-V9A (VHH)
VHH: DVQLQESGGGSVQAGGSLRLSCAASGDTFSSYSMAWFRQAPGKECELVSNILRDGTTTYAGSVKGRFTISRDDAKNTVYLQMVNLKSEDTARYYCAADSGTQLGYVGAVGLSCLDYVMDYWGKGTQVTVSS
B1: binds.
